Here are results for one substance from paper PMC10950897, “VCF1 is a p97/VCP cofactor promoting recognition of ubiquitylated p97-UFD1-NPL4 substrates” (Nature Communications, 2024).

Series [1] concerns p97-UFD1-NPL4 binding to K48-Ub2-7. As to the kind of experiment: FLAG IP: p97-UFD1-NPL4 binding to K48-linked ubiquitin chains, purified proteins. It is filed as biochemical, human. The settings on record: purified proteins. The method, then:
(§1) All in vitro binding experiments were performed in EBC or RIPA buffer as indicated. Recombinant Biotin-tagged K48-linked poly-ubiquitin chains (2−7) and K48-linked poly-ubiquitin chains (2−16) were purchased from R&D Systems and Enzo Life Science, respectively. Recombinant proteins were incubated with Strep-Tactin Sepharose (IBA), Glutathione agarose (Gold Biotechnology) or […] Fab-trap agarose (ChromoTek) overnight on an end-over-end rotator at 4 °C, washed six times with EBC or RIPA buffer, and resuspended in 2×Laemmli sample buffer. For p97, VCF1 or p47 pulldowns, antibodies (0.5 µg/sample) were coupled to agarose beads, incubated with recombinant proteins or cell lysates and washed with the indicated buffer. To assess p97-UFD1-NPL4 binding to ubiquitylated proteins in total cell extracts, U2OS cells were lysed in EBC buffer supplemented with protease and phosphatase inhibitors, sonicated and incubated on ice for 10 min. Lysates were cleared by centrifugation for 10 min at 16,100 × g. Cell lysate (40 µg) was added to recombinant proteins in EBC buffer, incubated overnight on the rotator with […] Fab-trap agarose (ChromoTek), and beads were washed six times.

The next series deals with p97-UFD1-NPL4. As to the kind of experiment: Analytical gel filtration. The series is classed as binding, human. Conditions: equimolar p97, UFD1-NPL4, VCF1 (5 µM), pH 7.4. The method, then:
For analytical gel filtration, p97 alone (5 µM hexamer), or p97 (5 µM hexamer) with UFD1-NPL4 (5 µM) and VCF1 (5 µM) were mixed in a total volume of 25 µl in SEC buffer (50 mM HEPES, pH 7.4; 150 mM NaCl). Samples were separated by size exclusion chromatography on a Superose 6 3.2/300 column (Cytiva) equilibrated in SEC buffer using an ÄKTA Purifier 10 FPLC system (GE Healthcare). After the column dead volume (0.35 column volumes), fractions were collected (120 µl) and analyzed by immunoblotting.

The subject of a further series is p97. As to the kind of experiment: IP of endogenous VCF1 from U2OS cells. The series is classed as binding, human. The procedure:
Immunoblotting was performed as previously described. Immunoprecipitation (IP) of HA-tagged proteins was performed using Anti-HA Affinity matrix (Roche) under denaturing conditions, unless otherwise stated. GFP-trap and […] Fab-trap agarose (Chromotek) were used according to manufacturer’s instructions. Cell lysis was performed using RIPA buffer (140 mM NaCl; 10 mM Tris-HCl, pH 8.0; 0.1% sodium deoxycholate; 1% Triton X-100; 0.1% SDS; 1 mM EDTA; 0.5 mM EGTA) or EBC buffer (50 mM Tris, pH 7.5; 150 mM NaCl; 1 mM EDTA; 0.5% NP-40, 1 mM DTT). IPs were washed in non-denaturing buffer (50 mM Tris-HCl, pH 7.5; 150 mM NaCl; 0.5 mM EDTA). Cell lysis and IP under partially denaturing conditions were performed using denaturing buffer (20 mM Tris-HCl, pH 7.5; 50 mM NaCl; 0.5% sodium deoxycholate; 0.5% NP-40; 0.5% SDS; 1 mM EDTA). All lysis and wash buffers were supplemented with 1 mM fresh PMSF Protease Inhibitor (Thermo), complete EDTA-free protease inhibitor Cocktail Tablets (Roche), 1.25 mM N-ethylmaleimide (Sigma) and 50 µM PR-619 (Calbiochem).

In another series the test system is p97 ATPase. As to the kind of experiment: ATPase assay. It is filed as biochemical, human. Conditions: p97 25 nM; for relative ATPase activity: ATP 375 μM. The procedure: For ATPase assays, 1 ml of 5x assay buffer (250 mM Tris, pH 7.4; 100 mM MgCl2; 5 mM EDTA) was mixed with 3 ml water, 5 μl 0.5 M TCEP and 5 μl 10% Triton X. To 40 ul of this assay buffer, recombinant proteins were added, mixed and incubated for 30 min. Final protein concentrations were as follows: p97 (25 nM), VCF1 (range of 0, 0.025, 1, 10 and 25 nM). The reactions were started by adding 10 μl ATP (final concentration of 375 μM) to the 40 μl reactions in a 96 well plate. After 35 min at room temperature, reactions were stopped by adding 50 μl BIOMOL Green reagent (Enzo Life Sciences). Absorbance at 635 nm was measured after 4 min and the relative ATPase activity calculated. Reactions were performed in duplicates and repeated three times.

The next series has as its system ubiquitin (K48-Ub2-16). As to the kind of experiment: StrepTactin pulldown of VCF1 with K48-linked ubiquitin chains; ubiquitin interaction alone or in complex with p97. It is filed as binding. The procedure: as §1
In a further series the test system is p97 hexamer (His6-p97). As to the kind of experiment: Mass photometry. Conditions: saturating VCF1, absence of other cofactors. It is filed as binding, human. The procedure: Mass photometry experiments were performed on a Refeyn One (Refeyn Ltd) mass photometer at room temperature. Measurements were run in triplicates, diluting 3 μl of protein sample (20 nM) in 15 μl PBS buffer loaded on a gasket (Grace Bio-Labs reusable CultureWell gaskets (GBL103250, Merck)) mounted on a glass microscope coverslip (0107222, Marienfeld). Experiments were performed with His6-p97 alone and in presence of saturating concentrations of full-length Strep-HA-VCF1. The molecular weight was obtained by contrast comparison with known molecular weight mass standard calibrants (NativeMark Unstained Protein Standard (LC0725), Thermo Fischer Scientific) measured on the same buffer and on the same day. Movies were recorded using AcquireMP (Refeyn Ltd, version 2022 R1), with a medium field of view and exposure time of 0.95 ms for the acquisition camera settings. A total of 6000 frames were recorded over a duration of one minute. Movies were processed and analysed with the DiscoverMP software (Refeyn Ltd, version 2022 R1) provided by the instrument manufacturer.

The subject of series [2] is p97-UFD1-NPL4 binding to ubiquitylated proteins. As to the kind of experiment: FLAG IP: p97-UFD1-NPL4 binding to ubiquitylated proteins in U2OS cell extracts. The series is classed as biochemical, human. The settings on record: U2OS total cell extracts, EBC buffer. The method, then:
as §1

“Also recorded” adds a separate entry of the source.

On to “VCF1: human FAM104A isoform 1, 186 amino acids (UniProt Q969W3); recombinant Strep-HA-tagged”, for which the “effect on UFD1-NPL4 association with p97” value in series [1] is “no discernible impact on UFD1-NPL4 association with p97”. Also, the “effect on p97-UFD1-NPL4 binding to K48 ubiquitin chains” value in series [1] (FLAG IP) is given as “strong stimulatory impact on p97-UFD1-NPL4 binding to K48-linked poly-ubiquitin chains in vitro”. Besides, the “comigration in size-exclusion chromatography” value in the series with p97-UFD1-NPL4 is “comigration of the p97-VCF1-UFD1-NPL4 complex”. Moreover, the “interaction of endogenous VCF1 with p97” value in the series on p97 (U2OS whole cell lysates) was “validate an interaction between endogenous VCF1 and p97”. Moreover, the “endogenous NPL4 in endogenous VCF1 IP” value in the series on p97 (U2OS, along with p97) is reported as “NPL4 could be detected in endogenous VCF1 IPs along with p97”. In addition, the “relative ATPase activity” value was found to be 0.985 in the series on p97 ATPase (0.025 nM, replicate 1); 0.875 with p97 ATPase (0.025 nM, replicate 2); 1.031 in the series on p97 ATPase (0.025 nM, replicate 3); 1.071 in the series with p97 ATPase (1 nM, replicate 1); 0.934 in the series on p97 ATPase (1 nM, replicate 2); 0.99 in the series with p97 ATPase (1 nM, replicate 3). The “relative ATPase activity” value with p97 ATPase (10 nM, replicate 1) amounted to 1.095; in the series with p97 ATPase (10 nM, replicate 2), 1.007; in the series with p97 ATPase (10 nM, replicate 3), 1.066. Moreover, in the series with p97 ATPase, the “effect on p97 ATPase activity (in words)” value is given as “had no impact on the ATPase activity of p97 in vitro”. The interaction with ubiquitin result in the series with ubiquitin (K48-Ub2-16) is “neither in isolation nor in complex with p97 did VCF1 display detectable interaction with ubiquitin”. Further, in the series on p97 hexamer (His6-p97), the “VCF1 molecules bound per p97 hexamer” value is recorded as 2-3 molecules per p97 hexamer. The “effect on p97-UFD1-NPL4 binding to ubiquitylated proteins” value in series [2] is given as “prominent ability of VCF1 to enhance p97-UFD1-NPL4 binding to ubiquitylated proteins; also recorded: fully dependent on the ubiquitin-binding ability of the UFD1-NPL4 complex”.
